How the values were obtained:
[1] = biological target: insulin receptor (IR) (Homo sapiens, UniProt P06213); settings: cited from earlier work
[2] = test system: diabetic Sprague-Dawley rats; settings: diabetic (streptozotocin) Sprague-Dawley rats; cited from earlier work
[3] = biological target: T1, FLAG epitope-tagged holoreceptor of human type 1 insulin-like growth factor receptor (human, UniProt P08069 31-1367, limits assumed); assay: ratio of dissociation constants from competitive displacement of 125I-IGF-I on plate-captured FLAG-tagged hIGFR; relative to insulin lispro
T1 construct: mature; Holoreceptor captured on 96 well plates coated with anti-FLAG monoclonal antibody; The natural receptor is processed from one precursor into alpha and beta chains; also called hIGFR; IGF-1R
Excerpt: Cross-reactivity of the single-chain insulin analogues with IGF-1R was studied using a FLAG epitope-tagged holoreceptor to human type 1 insulin-like growth factor receptor (hIGFR) bound to 96 well plates coated with anti-FLAG monoclonal antibody. […] This is used as a marker for mitogenic potential, where less IGF-R affinity is interpreted as lower mitogenic potential.

| Molecule | receptor-binding affinity relative to KP-insulin [1] | in vivo potency [2] | IGF1-R (Rel. Aff.) [3] [%] |
| --- | --- | --- | --- |
| 2-F-PheB24-DKP-insulin: derivative of DKP-insulin containing ortho-monofluoro-phenylalanine at position B24 | ca. 35(±5) % | potency and duration of signaling are enhanced | – |
| single-chain insulin EA8, EA14, QA17, PE, EAGPRR (ligand, Single-chain insulin analogue (B domain, 6-residue C domain, A domain)) FVNQHLCGSHLVEALYLVCGERGFFYTPETEAGPRRGIVEQCCESICSLEQLQNYCN | – | – | 11 |
| single-chain insulin EA8, EA14, RA17, PE, EAGPRR (ligand) FVNQHLCGSHLVEALYLVCGERGFFYTPETEAGPRRGIVEQCCESICSLEQLRNYCN | – | – | 25 |
| single-chain insulin EA8, EA14, RA17, EP, EAGPRR (ligand) FVNQHLCGSHLVEALYLVCGERGFFYTEPTEAGPRRGIVEQCCESICSLEQLRNYCN | – | – | 5 |
| single-chain insulin HA8, EA14, FB17, PE, EEGPRR (ligand) FVNQHLCGSHLVEALYFVCGERGFFYTPETEEGPRRGIVEQCCHSICSLEQLENYCN | – | – | 16 |
| single-chain insulin HA8, EA14, NB17, PE, EEGPRR (ligand) FVNQHLCGSHLVEALYNVCGERGFFYTPETEEGPRRGIVEQCCHSICSLEQLENYCN | – | – | 2 |
| single-chain insulin HA8, EA14, QA17, PE, EAGPRR (ligand) FVNQHLCGSHLVEALYLVCGERGFFYTPETEAGPRRGIVEQCCHSICSLEQLQNYCN | – | – | 18 |
